We go through four molecules from patent US20020058024A1 (YEDA RESEARCH AND DEVELOPMENT, published 2002).

To fix the notation:
T1: RAP (RIP-associated protein) (human, UniProt Q9Y3I1 1-522, limits assumed)
T1 construct: The clone first isolated in the two-hybrid screen was a partial clone of about 1.9 Kb; also called RAP protein; RAP-1 (clone of about 2.2 kB, CNCM I-2706)
T1 sequence: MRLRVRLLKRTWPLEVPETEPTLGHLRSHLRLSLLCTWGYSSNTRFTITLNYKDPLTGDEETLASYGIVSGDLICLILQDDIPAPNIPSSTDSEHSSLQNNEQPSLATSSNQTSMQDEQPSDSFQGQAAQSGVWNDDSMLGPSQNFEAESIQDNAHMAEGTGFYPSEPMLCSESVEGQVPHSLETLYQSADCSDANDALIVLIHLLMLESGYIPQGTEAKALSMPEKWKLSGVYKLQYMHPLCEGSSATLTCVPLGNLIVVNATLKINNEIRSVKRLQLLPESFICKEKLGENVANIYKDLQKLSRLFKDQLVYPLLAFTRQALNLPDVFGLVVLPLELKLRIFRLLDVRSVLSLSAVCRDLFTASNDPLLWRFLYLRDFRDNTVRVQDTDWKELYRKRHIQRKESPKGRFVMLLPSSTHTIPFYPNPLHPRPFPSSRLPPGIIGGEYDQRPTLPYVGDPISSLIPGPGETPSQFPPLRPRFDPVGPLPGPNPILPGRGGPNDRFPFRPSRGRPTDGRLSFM

B1: TRADD (other, UniProt Q15628 1-312, looked up)
chain: MAAGQNGHEEWVGSAYLFVESSLDKVVLSDAYAHPQQKVAVYRALQAALAESGGSPDVLQMLKIHRSDPQLIVQLRFCGRQPCGRFLRAYREGALRAALQRSLAAALAQHSVPLQLELRAGAERLDALLADEERCLSCILAQQPDRLRDEELAELEDALRNLKCGSGARGGDGEVASAPLQPPVPSLSEVKPPPPPPPAQTFLFQGQPVVNRPLSLKDQQTFARSVGLKWRKVGRSLQRGCRALRDPALDSLAYEYEREGLYEQAFQLLRRFVQAEGRRATLQRLVEALEENELTSLAEDLLGLTDPNGGLA
B2: p75-R (receptor, UniProt P20333 287-461, looked up)
chain: VKKKPLCLQREAKVPHLPADKARGTQGPEQQHLLITAPSSSSSSLESSASALDRRAPTRNQPQAPGVEASGAGEARASTGSSDSSPGGHGTQVNVTCIVNVCSSSDHSSQCSSQASSTMGDTDSSPSESPKDEQVPFSKEECAFRSQLETPETLLGSTEEKPLPLGVPDAGMKPS
notes: also called p75 TNF-R; p75 tumor necrosis factor receptor
B3: MORT-1 (other, UniProt Q13158 1-208, looked up)
chain: MDPFLVLLHSVSSSLSSSELTELKFLCLGRVGKRKLERVQSGLDLFSMLLEQNDLEPGHTELLRELLASLRRHDLLRRVDDFEAGAAAGAAPGEEDLCAAFNVICDNVGKDWRRLARQLKVSDTKIDSIEDRYPRNLTERVRESLRIWKNTEKENATVAHLVGALRSCQMNLVADLVQEVQQARDLQNRSGAMSPMSWNSDASTSEAS
notes: also called FADD
B4: p55-R (receptor, UniProt P19438 235-455, looked up)
chain: RYQRWKSKLYSIVCGKSTPEKEGELEGTTTKPLAPNPSFSPTPGFTPTLGFSPVPSSTFTSSSTYTPGDCPNFAAPRREVAPPYQGADPILATALASDPIPNPLQKWEDSAHKPQSLDTDDPATLYAVVENVPPLRWKEFVRRLGLSDHEIDRLELQNGRCLREAQYSMLATWRRRTPRREATLELLGRVLRDMDLLGCLEDIEEALCGPAALPPAPSLLR
notes: also called p55 TNF-R; p55 tumor necrosis factor receptor

The assay has as its target T1, RAP (RIP-associated protein). Briefly: binding assay tests (method not named).
As to B1, the binding result is on record as “no binding”.

With B2, the binding result is recorded as “no binding”.

As for B3, the binding result was “no binding”.

Consider B4, for which the binding result was “no binding”.
